T1: human IL-18BP (human, UniProt O95998 31-194)
T1 construct: UniProt printed as 095998; also called hIL-18BP
T1 sequence: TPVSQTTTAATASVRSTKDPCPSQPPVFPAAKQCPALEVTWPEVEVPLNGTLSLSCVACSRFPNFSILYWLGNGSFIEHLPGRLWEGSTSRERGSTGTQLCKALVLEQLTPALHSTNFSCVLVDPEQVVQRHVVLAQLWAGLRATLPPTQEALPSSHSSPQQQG


molecular target: T1, human IL-18BP; assay: BLI, apparent KD

Binder	Kd
SA301a HC-H52A (antibody, name in Kabat numbering, V domains shown, IgG1 kappa) VH: QVQLQESGPGLVKPSQTLSLTCTVSGYSITSDYNSHWIRQPPGKGLEWIGYIAYSGSTNYNPSLKSRVTISRDTSKNQFSLKLSSVTAADTAVYYCARNYGSIYVNYFDYWGQGTLVTVSS VL: EIVLTQSPATLSLSPGERATLSCSASSSVSYMYWYQQKPGQAPRPLIYRTSNLASGIPARFSGSGSGTDFTLTISSLEPEDFAVYYCQQYHSYPTFGGGTKVEIK	0.24 nM
SA301a HC-S54L (antibody, name in Kabat numbering, V domains shown, IgG1 kappa) VH: QVQLQESGPGLVKPSQTLSLTCTVSGYSITSDYNSHWIRQPPGKGLEWIGYIHYLGSTNYNPSLKSRVTISRDTSKNQFSLKLSSVTAADTAVYYCARNYGSIYVNYFDYWGQGTLVTVSS VL: EIVLTQSPATLSLSPGERATLSCSASSSVSYMYWYQQKPGQAPRPLIYRTSNLASGIPARFSGSGSGTDFTLTISSLEPEDFAVYYCQQYHSYPTFGGGTKVEIK	2.64 nM
SA301a HC-H52Y (antibody, name in Kabat numbering, V domains shown, IgG1 kappa) VH: QVQLQESGPGLVKPSQTLSLTCTVSGYSITSDYNSHWIRQPPGKGLEWIGYIYYSGSTNYNPSLKSRVTISRDTSKNQFSLKLSSVTAADTAVYYCARNYGSIYVNYFDYWGQGTLVTVSS VL: EIVLTQSPATLSLSPGERATLSCSASSSVSYMYWYQQKPGQAPRPLIYRTSNLASGIPARFSGSGSGTDFTLTISSLEPEDFAVYYCQQYHSYPTFGGGTKVEIK	0.79 nM
SA301a HC-H52K (antibody, name in Kabat numbering, V domains shown, IgG1 kappa) VH: QVQLQESGPGLVKPSQTLSLTCTVSGYSITSDYNSHWIRQPPGKGLEWIGYIKYSGSTNYNPSLKSRVTISRDTSKNQFSLKLSSVTAADTAVYYCARNYGSIYVNYFDYWGQGTLVTVSS VL: EIVLTQSPATLSLSPGERATLSCSASSSVSYMYWYQQKPGQAPRPLIYRTSNLASGIPARFSGSGSGTDFTLTISSLEPEDFAVYYCQQYHSYPTFGGGTKVEIK	0.01 nM
SA301a HC-H52T (antibody, name in Kabat numbering, V domains shown, IgG1 kappa) VH: QVQLQESGPGLVKPSQTLSLTCTVSGYSITSDYNSHWIRQPPGKGLEWIGYITYSGSTNYNPSLKSRVTISRDTSKNQFSLKLSSVTAADTAVYYCARNYGSIYVNYFDYWGQGTLVTVSS VL: EIVLTQSPATLSLSPGERATLSCSASSSVSYMYWYQQKPGQAPRPLIYRTSNLASGIPARFSGSGSGTDFTLTISSLEPEDFAVYYCQQYHSYPTFGGGTKVEIK	1.92 nM
SA301a HC-S54G (antibody, name in Kabat numbering, V domains shown, IgG1 kappa) VH: QVQLQESGPGLVKPSQTLSLTCTVSGYSITSDYNSHWIRQPPGKGLEWIGYIHYGGSTNYNPSLKSRVTISRDTSKNQFSLKLSSVTAADTAVYYCARNYGSIYVNYFDYWGQGTLVTVSS VL: EIVLTQSPATLSLSPGERATLSCSASSSVSYMYWYQQKPGQAPRPLIYRTSNLASGIPARFSGSGSGTDFTLTISSLEPEDFAVYYCQQYHSYPTFGGGTKVEIK	0.33 nM
SA301a HC-H52P (antibody, name in Kabat numbering, V domains shown, IgG1 kappa) VH: QVQLQESGPGLVKPSQTLSLTCTVSGYSITSDYNSHWIRQPPGKGLEWIGYIPYSGSTNYNPSLKSRVTISRDTSKNQFSLKLSSVTAADTAVYYCARNYGSIYVNYFDYWGQGTLVTVSS VL: EIVLTQSPATLSLSPGERATLSCSASSSVSYMYWYQQKPGQAPRPLIYRTSNLASGIPARFSGSGSGTDFTLTISSLEPEDFAVYYCQQYHSYPTFGGGTKVEIK	0.01 nM

molecular target: T1, human IL-18BP; assay: BLI, apparent KD; remark: another data set of the same source

Binder	Kd
SA302a HC-N33bQ (antibody, V domains shown) VH: QVQLQESGPGLVKPSQTLSLTCTVSGYSITSDYQAHWIRQPPGKGLEWIGYIHYSGSTNYNPSLKSRVTISRDTSKNQFSLKLSSVTAADTAVYYCARNYGSIYVNYFDYWGQGTLVTVSS VL: EIVLTQSPATLSLSPGERATLSCSASSSVSYMYWYQQKPGQAPRPLIYRTSNLASGIPARFSGSGSGTDFTLTISSLEPEDFAVYYCQQYHSYPTFGGGTKVEIK	6.01 nM
SA302a HC-N33bK (antibody, V domains shown) VH: QVQLQESGPGLVKPSQTLSLTCTVSGYSITSDYKAHWIRQPPGKGLEWIGYIHYSGSTNYNPSLKSRVTISRDTSKNQFSLKLSSVTAADTAVYYCARNYGSIYVNYFDYWGQGTLVTVSS VL: EIVLTQSPATLSLSPGERATLSCSASSSVSYMYWYQQKPGQAPRPLIYRTSNLASGIPARFSGSGSGTDFTLTISSLEPEDFAVYYCQQYHSYPTFGGGTKVEIK	1.12 nM
SA302a HC-H35L (antibody, V domains shown) VH: QVQLQESGPGLVKPSQTLSLTCTVSGYSITSDYNALWIRQPPGKGLEWIGYIHYSGSTNYNPSLKSRVTISRDTSKNQFSLKLSSVTAADTAVYYCARNYGSIYVNYFDYWGQGTLVTVSS VL: EIVLTQSPATLSLSPGERATLSCSASSSVSYMYWYQQKPGQAPRPLIYRTSNLASGIPARFSGSGSGTDFTLTISSLEPEDFAVYYCQQYHSYPTFGGGTKVEIK	1.74 nM
SA302a HC-N33bA (antibody, V domains shown) VH: QVQLQESGPGLVKPSQTLSLTCTVSGYSITSDYAAHWIRQPPGKGLEWIGYIHYSGSTNYNPSLKSRVTISRDTSKNQFSLKLSSVTAADTAVYYCARNYGSIYVNYFDYWGQGTLVTVSS VL: EIVLTQSPATLSLSPGERATLSCSASSSVSYMYWYQQKPGQAPRPLIYRTSNLASGIPARFSGSGSGTDFTLTISSLEPEDFAVYYCQQYHSYPTFGGGTKVEIK	5.45 nM
SA302a HC-H35G (antibody, V domains shown) VH: QVQLQESGPGLVKPSQTLSLTCTVSGYSITSDYNAGWIRQPPGKGLEWIGYIHYSGSTNYNPSLKSRVTISRDTSKNQFSLKLSSVTAADTAVYYCARNYGSIYVNYFDYWGQGTLVTVSS VL: EIVLTQSPATLSLSPGERATLSCSASSSVSYMYWYQQKPGQAPRPLIYRTSNLASGIPARFSGSGSGTDFTLTISSLEPEDFAVYYCQQYHSYPTFGGGTKVEIK	2.05 nM
SA302a HC-H35R (antibody, V domains shown) VH: QVQLQESGPGLVKPSQTLSLTCTVSGYSITSDYNARWIRQPPGKGLEWIGYIHYSGSTNYNPSLKSRVTISRDTSKNQFSLKLSSVTAADTAVYYCARNYGSIYVNYFDYWGQGTLVTVSS VL: EIVLTQSPATLSLSPGERATLSCSASSSVSYMYWYQQKPGQAPRPLIYRTSNLASGIPARFSGSGSGTDFTLTISSLEPEDFAVYYCQQYHSYPTFGGGTKVEIK	1.18 nM
SA302a HC-H35D (antibody, V domains shown) VH: QVQLQESGPGLVKPSQTLSLTCTVSGYSITSDYNADWIRQPPGKGLEWIGYIHYSGSTNYNPSLKSRVTISRDTSKNQFSLKLSSVTAADTAVYYCARNYGSIYVNYFDYWGQGTLVTVSS VL: EIVLTQSPATLSLSPGERATLSCSASSSVSYMYWYQQKPGQAPRPLIYRTSNLASGIPARFSGSGSGTDFTLTISSLEPEDFAVYYCQQYHSYPTFGGGTKVEIK	4.23 nM
SA302a HC-N33bP (antibody, V domains shown) VH: QVQLQESGPGLVKPSQTLSLTCTVSGYSITSDYPAHWIRQPPGKGLEWIGYIHYSGSTNYNPSLKSRVTISRDTSKNQFSLKLSSVTAADTAVYYCARNYGSIYVNYFDYWGQGTLVTVSS VL: EIVLTQSPATLSLSPGERATLSCSASSSVSYMYWYQQKPGQAPRPLIYRTSNLASGIPARFSGSGSGTDFTLTISSLEPEDFAVYYCQQYHSYPTFGGGTKVEIK	6.05 nM
SA302a HC-H35N (antibody, V domains shown) VH: QVQLQESGPGLVKPSQTLSLTCTVSGYSITSDYNANWIRQPPGKGLEWIGYIHYSGSTNYNPSLKSRVTISRDTSKNQFSLKLSSVTAADTAVYYCARNYGSIYVNYFDYWGQGTLVTVSS VL: EIVLTQSPATLSLSPGERATLSCSASSSVSYMYWYQQKPGQAPRPLIYRTSNLASGIPARFSGSGSGTDFTLTISSLEPEDFAVYYCQQYHSYPTFGGGTKVEIK	3.02 nM

From US20250368745A1 (published 2025)
